From doi:10.1101/2021.02.22.432310, “Tetrameric UvrD helicase is located at the E. coli replisome due to frequent replication blocks” (bioRxiv, 2021)

Target: T1, Biotinylated UvrD (E. coli, UniProt P03018 1-720, biotin)
T1 construct: UvrD helicase (DNA helicase II), E. coli; also called E. coli UvrD
T1 sequence (looked up): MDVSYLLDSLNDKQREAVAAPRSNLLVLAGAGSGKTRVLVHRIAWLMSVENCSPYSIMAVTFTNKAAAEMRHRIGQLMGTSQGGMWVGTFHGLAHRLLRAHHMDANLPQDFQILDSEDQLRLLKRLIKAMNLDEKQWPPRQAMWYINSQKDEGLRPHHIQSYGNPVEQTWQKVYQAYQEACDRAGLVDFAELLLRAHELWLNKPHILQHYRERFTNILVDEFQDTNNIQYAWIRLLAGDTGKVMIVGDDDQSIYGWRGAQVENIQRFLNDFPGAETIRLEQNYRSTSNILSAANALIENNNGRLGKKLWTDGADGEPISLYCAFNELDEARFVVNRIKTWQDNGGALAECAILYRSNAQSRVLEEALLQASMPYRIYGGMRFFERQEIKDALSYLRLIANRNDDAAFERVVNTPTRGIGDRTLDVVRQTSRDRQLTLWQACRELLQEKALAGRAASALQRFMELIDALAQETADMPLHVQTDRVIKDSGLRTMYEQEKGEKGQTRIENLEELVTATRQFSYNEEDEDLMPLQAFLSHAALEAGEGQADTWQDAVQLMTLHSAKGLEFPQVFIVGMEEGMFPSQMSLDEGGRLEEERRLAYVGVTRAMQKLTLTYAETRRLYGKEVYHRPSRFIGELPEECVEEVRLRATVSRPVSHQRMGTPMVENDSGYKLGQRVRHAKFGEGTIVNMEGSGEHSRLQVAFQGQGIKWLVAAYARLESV
Test: SPR; BIAcore T200, 25°C; biotinylated UvrD or Rep immobilised on streptavidin-coated SA chips; Tau or UvrB passed over, ca. 200-4000 nM, 20 µl/min; 10 mM HEPES pH 7.4, 3 mM EDTA, 150 mM NaCl, 10 mM MgCl2, 0.05% Tween 20; single sites binding model
Settings: both partners purified

B1: UvrB (natural protein, UniProt P0A8F8 1-673, looked up)
chain: MSKPFKLNSAFKPSGDQPEAIRRLEEGLEDGLAHQTLLGVTGSGKTFTIANVIADLQRPTMVLAPNKTLAAQLYGEMKEFFPENAVEYFVSYYDYYQPEAYVPSSDTFIEKDASVNEHIEQMRLSATKAMLERRDVVVVASVSAIYGLGDPDLYLKMMLHLTVGMIIDQRAILRRLAELQYARNDQAFQRGTFRVRGEVIDIFPAESDDIALRVELFDEEVERLSLFDPLTGQIVSTIPRFTIYPKTHYVTPRERIVQAMEEIKEELAARRKVLLENNKLLEEQRLTQRTQFDLEMMNELGYCSGIENYSRFLSGRGPGEPPPTLFDYLPADGLLVVDESHVTIPQIGGMYRGDRARKETLVEYGFRLPSALDNRPLKFEEFEALAPQTIYVSATPGNYELEKSGGDVVDQVVRPTGLLDPIIEVRPVATQVDDLLSEIRQRAAINERVLVTTLTKRMAEDLTEYLEEHGERVRYLHSDIDTVERMEIIRDLRLGEFDVLVGINLLREGLDMPEVSLVAILDADKEGFLRSERSLIQTIGRAARNVNGKAILYGDKITPSMAKAIGETERRREKQQKYNEEHGITPQGLNKKVVDILALGQNIAKTKAKGRGKSRPIVEPDNVPMDMSPKALQQKIHELEGLMMQHAQNLEFEEAAQIRDQLHQLRELFIAAS
  Kd: 231 nM
